Experimental data: patent US20260209376A1 (University of California, published 2026)

Experiments:
[1] = molecular target: T1, human TfR1 on the cell surface (KMS-11 or MM.1S human MM cells) (human, UniProt P02786 1-760); assay: flow cytometry on MM.1S cells, 2 ug antibody, PE anti-human kappa detection
T1 construct: whole, on cells; also called human cells expressing the TfR1; CD71
Experimental: (§1) KMS-11 cells (Namba et al., In Vitro Cell. Dev. Biol. 25(8):723-729 (1989)), a kind gift from Dr. Lawrence Boise (Emory University, Atlanta, GA, USA), and MM.1S cells (Greenstein et al., Exp. Hematol., 31(4):271-282 (2003)), purchased from the American Type Culture Collection (ATCC, Manassas, VA, USA; ATCC® CRL-2974T”) human MM cells were incubated with 2 μg of humanized antibodies or the control antibodies (ch128.1 as a positive control or a negative isotype control IgG1) for 2 hours on ice. Binding was detected using a PE-conjugated anti-human κ antibody. Samples were analyzed on an LSRII analytical flow cytometer (BD Biosciences, San Jose, CA, USA) and 10,000 events were collected. Histograms were created using the […] Version 3 (De Novo Software, Glendale, CA, USA).

[2] = molecular target: T2, soluble human TfR1 (sCD71) (human, UniProt P02786 89-760); assay: ELISA, plate coated with soluble human TfR1 (Kerafast), 2-fold antibody dilutions, AP anti-human kappa detection, A405
T2 construct: extracellular domain; Two sources (Cal Tech, Kerafast) are kept as one molecule; also called Human sCD71; transferrin receptor 1
Experimental: (§2) Immulon-H2B plates (Thermo Fisher Scientific, Inc.) were coated overnight at 4° C. with soluble 5 μg/mL TfR1 (sCD71) in 50 mM carbonate/bicarbonate buffer, pH 9.3. Human sCD71 was obtained from either Cal Tech (California Institute of Technology, Pasadena, CA, USA) or Kerafast, Inc., while cynomolgus monkey (Macaca fascicularis) sCD71 was purchased from Sino Biological, Inc. (Wayne, PA, USA). Plates were washed with PBS and blocked with 3% BSA in PBS. Serial 2-fold dilutions of antibodies (200-3.12 ng/mL) were added to the plate in duplicates and incubated overnight at 4° C. Binding was detected with an AP-conjugated goat anti-human κ antibody (MilliporeSigma) and AP substrate, p-nitrophenyl phosphate disodium (MilliporeSigma), dissolved in diethanolamine buffer (9.6% diethanolamine (v/v), 0.24 mM MgCl₂ in water, pH 9.8). Plates were read at absorbance 405 nm using a FilterMax F5 multi-mode microplate reader (Molecular Devices, Sunnyvale, CA, USA).

[3] = molecular target: T3, cynomolgus monkey (Macaca fascicularis) soluble TfR1 (sCD71) (cynomolgus monkey (Macaca fascicularis), UniProt H9EXL1 89-760 (rhesus entry)); assay: ELISA, plate coated with soluble cynomolgus monkey TfR1 (Sino Biological), 2-fold antibody dilutions, AP anti-human kappa detection, A405
T3 construct: extracellular domain; also called cynomolgus monkey TfR1; cynomolgus monkey sCD71
Experimental: as §2

[4] = molecular target: T2, soluble human TfR1 (sCD71); assay: ELISA, soluble human TfR1; semi-quantitative grade
[5] = molecular target: T1, human TfR1 on the cell surface (KMS-11 …); assay: flow cytometry on KMS-11 cells; semi-quantitative grade
Experimental: as §1

T1 sequence (P02786 whole entry): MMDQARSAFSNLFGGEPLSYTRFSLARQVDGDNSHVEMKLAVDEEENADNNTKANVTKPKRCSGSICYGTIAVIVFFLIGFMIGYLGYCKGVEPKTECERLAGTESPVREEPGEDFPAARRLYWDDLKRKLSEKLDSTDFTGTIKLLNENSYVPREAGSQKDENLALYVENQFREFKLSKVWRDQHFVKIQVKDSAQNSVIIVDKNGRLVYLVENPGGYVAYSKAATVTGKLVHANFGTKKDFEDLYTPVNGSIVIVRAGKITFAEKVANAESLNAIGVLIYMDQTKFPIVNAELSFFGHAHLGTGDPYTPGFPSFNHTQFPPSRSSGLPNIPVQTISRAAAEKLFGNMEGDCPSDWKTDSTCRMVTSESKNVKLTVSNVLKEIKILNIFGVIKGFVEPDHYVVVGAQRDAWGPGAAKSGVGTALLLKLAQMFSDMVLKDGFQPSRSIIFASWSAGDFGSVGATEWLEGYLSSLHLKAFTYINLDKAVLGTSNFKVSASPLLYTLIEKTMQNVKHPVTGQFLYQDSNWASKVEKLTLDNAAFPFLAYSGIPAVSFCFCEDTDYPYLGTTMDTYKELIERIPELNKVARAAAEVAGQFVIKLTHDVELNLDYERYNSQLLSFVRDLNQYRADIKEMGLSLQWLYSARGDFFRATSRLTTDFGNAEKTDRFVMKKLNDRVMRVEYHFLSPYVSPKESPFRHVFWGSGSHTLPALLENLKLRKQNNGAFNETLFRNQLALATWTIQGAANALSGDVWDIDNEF
T2 sequence (P02786 89-760): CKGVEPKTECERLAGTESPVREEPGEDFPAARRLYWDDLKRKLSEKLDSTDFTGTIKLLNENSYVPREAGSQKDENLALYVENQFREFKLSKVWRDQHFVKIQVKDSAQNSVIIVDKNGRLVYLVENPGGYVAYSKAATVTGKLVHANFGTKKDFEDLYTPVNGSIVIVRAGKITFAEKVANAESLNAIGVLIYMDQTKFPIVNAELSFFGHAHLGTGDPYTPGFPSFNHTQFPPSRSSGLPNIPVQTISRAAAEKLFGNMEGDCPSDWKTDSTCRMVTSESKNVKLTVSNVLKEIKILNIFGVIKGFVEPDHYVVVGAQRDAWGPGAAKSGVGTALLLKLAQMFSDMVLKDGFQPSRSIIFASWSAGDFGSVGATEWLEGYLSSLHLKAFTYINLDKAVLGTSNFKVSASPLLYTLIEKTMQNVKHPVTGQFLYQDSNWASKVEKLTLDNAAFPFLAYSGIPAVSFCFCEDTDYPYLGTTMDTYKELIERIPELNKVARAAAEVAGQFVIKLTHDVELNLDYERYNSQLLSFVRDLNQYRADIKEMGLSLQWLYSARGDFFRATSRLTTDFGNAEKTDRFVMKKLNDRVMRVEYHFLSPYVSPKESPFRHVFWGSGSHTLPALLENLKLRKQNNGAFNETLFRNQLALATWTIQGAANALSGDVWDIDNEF
T3 sequence (chain, as listed by the source): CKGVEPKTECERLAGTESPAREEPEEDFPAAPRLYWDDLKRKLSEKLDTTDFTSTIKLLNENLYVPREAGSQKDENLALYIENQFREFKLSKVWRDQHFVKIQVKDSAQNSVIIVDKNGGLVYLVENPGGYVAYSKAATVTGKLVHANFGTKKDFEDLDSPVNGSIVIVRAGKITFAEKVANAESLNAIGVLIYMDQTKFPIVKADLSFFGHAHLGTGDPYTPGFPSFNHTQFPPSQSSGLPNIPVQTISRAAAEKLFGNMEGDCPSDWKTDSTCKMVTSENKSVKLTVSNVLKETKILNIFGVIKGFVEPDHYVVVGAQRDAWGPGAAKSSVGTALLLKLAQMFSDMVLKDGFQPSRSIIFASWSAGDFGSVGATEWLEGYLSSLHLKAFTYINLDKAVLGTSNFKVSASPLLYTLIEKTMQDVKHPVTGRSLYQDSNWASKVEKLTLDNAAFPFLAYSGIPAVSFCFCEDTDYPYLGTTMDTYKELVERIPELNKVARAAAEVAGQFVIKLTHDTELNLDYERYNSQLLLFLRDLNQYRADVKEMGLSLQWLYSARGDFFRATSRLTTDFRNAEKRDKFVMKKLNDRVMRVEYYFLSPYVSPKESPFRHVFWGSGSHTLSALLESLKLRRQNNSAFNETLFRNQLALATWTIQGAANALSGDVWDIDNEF

Binder	binding result [1]	binding result [2]	EC50 (read off the curve) [3] [µg/mL]	binding result [4]	binding result [5]
H6L7 (antibody, human IgG1, V domains shown, humanized; also called hu128.1) VH: EVQLVQSGAEVKKPGESLKISCKGSGYSFTGYTMNWVRQMPGKGLEWMGRINPHNGGTDYNQKFKDQVTISADKSISTAYLQWSSLKASDTAMYYCARGYYYYSLDYWGQGTLVTVSS VL: EIVLTQSPATLSLSPGERATLSCSASSSIRYIHWYQQKPGQAPRRWIYDTSNLASGTPARFSGSGSGTSYSLTISSLEPEDFAVYYCHQRNSYPWTFGQGTKVEIK	binds	binds	~0.03		
H6L8 (antibody, human IgG1, V domains shown, humanized; also called hu128.1) VH: EVQLVQSGAEVKKPGESLKISCKGSGYSFTGYTMNWVRQMPGKGLEWMGRINPHNGGTDYNQKFKDQVTISADKSISTAYLQWSSLKASDTAMYYCARGYYYYSLDYWGQGTLVTVSS VL: EIVLTQSPDFQSVTPKEKVTITCSASSSIRYIHWYQQRPDQSPKRWIYDTSNLASGVPSRFSGSGSGTSYSLTINSLEAEDAATYYCHQRNSYPWTFGQGTKVEIK				binds	binds
H8L9 (antibody, human IgG1, V domains shown, humanized; also called hu128.1) VH: QVQLVESGGGVVQPGRSLRLSCAASGYSFTGYTMNWVRQAPGNGLEWVARINPHNGGTDYNQKFKDRFTISRDNSKNTLYLQMNSLRAEDTAVYYCARGYYYYSLDYWGQGTTVTVSS VL: EIVLTQSPATLSLSPGERATLSCSASSSIRYIHWYQQKPGQAPRRWIYDTSNLASGTPARFSGSGSGTDFTLTISSLEPEDFAVYYCHQRNSYPWTFGQGTKVEIK	binds	binds	~0.04		
H8L7 (antibody, human IgG1, V domains shown, humanized; also called hu128.1) VH: QVQLVESGGGVVQPGRSLRLSCAASGYSFTGYTMNWVRQAPGNGLEWVARINPHNGGTDYNQKFKDRFTISRDNSKNTLYLQMNSLRAEDTAVYYCARGYYYYSLDYWGQGTTVTVSS VL: EIVLTQSPATLSLSPGERATLSCSASSSIRYIHWYQQKPGQAPRRWIYDTSNLASGTPARFSGSGSGTSYSLTISSLEPEDFAVYYCHQRNSYPWTFGQGTKVEIK				binds	binds
H6L9 (antibody, human IgG1, V domains shown, humanized; also called hu128.1) VH: EVQLVQSGAEVKKPGESLKISCKGSGYSFTGYTMNWVRQMPGKGLEWMGRINPHNGGTDYNQKFKDQVTISADKSISTAYLQWSSLKASDTAMYYCARGYYYYSLDYWGQGTLVTVSS VL: EIVLTQSPATLSLSPGERATLSCSASSSIRYIHWYQQKPGQAPRRWIYDTSNLASGTPARFSGSGSGTDFTLTISSLEPEDFAVYYCHQRNSYPWTFGQGTKVEIK	binds	binds	~0.03		
H6L11 (antibody, human IgG1, V domains shown, humanized; also called hu128.1) VH: EVQLVQSGAEVKKPGESLKISCKGSGYSFTGYTMNWVRQMPGKGLEWMGRINPHNGGTDYNQKFKDQVTISADKSISTAYLQWSSLKASDTAMYYCARGYYYYSLDYWGQGTLVTVSS VL: EIVLTQSPATLSLSPGERATLSCSASSSIRYIHWYQQKPGQAPRLLIYDTSNLASGTPARFSGSGSGTSYSLTISSLEPEDFAVYYCHQRNSYPWTFGQGTKVEIK				binds	binds
H8L8 (antibody, human IgG1, V domains shown, humanized; also called hu128.1) VH: QVQLVESGGGVVQPGRSLRLSCAASGYSFTGYTMNWVRQAPGNGLEWVARINPHNGGTDYNQKFKDRFTISRDNSKNTLYLQMNSLRAEDTAVYYCARGYYYYSLDYWGQGTTVTVSS VL: EIVLTQSPDFQSVTPKEKVTITCSASSSIRYIHWYQQRPDQSPKRWIYDTSNLASGVPSRFSGSGSGTSYSLTINSLEAEDAATYYCHQRNSYPWTFGQGTKVEIK				binds	binds

Continued, values first:

binding result [1]	binding result [2]	EC50 (read off the curve) [3] [µg/mL]	binding result [4]	binding result [5]	Binder
			binds	binds	H8L5 (antibody, human IgG1, V domains shown, humanized; also called hu128.1) VH: QVQLVESGGGVVQPGRSLRLSCAASGYSFTGYTMNWVRQAPGNGLEWVARINPHNGGTDYNQKFKDRFTISRDNSKNTLYLQMNSLRAEDTAVYYCARGYYYYSLDYWGQGTTVTVSS VL: EIVLTQSPATLSLSPGERATLSCSASSSIRYIHWYQQKPGQAPRRWIYDTSNLASGTPARFSGSGSGTSYSLTISSLEPEDFAVYYCQQRNSYPWTFGQGTKVEIK
			binds	binds	H6L12 (antibody, human IgG1, V domains shown, humanized; also called hu128.1) VH: EVQLVQSGAEVKKPGESLKISCKGSGYSFTGYTMNWVRQMPGKGLEWMGRINPHNGGTDYNQKFKDQVTISADKSISTAYLQWSSLKASDTAMYYCARGYYYYSLDYWGQGTLVTVSS VL: EIVLTQSPDFQSVTPKEKVTITCSASSSIRYIHWYQQRPDQSPKLLIYDTSNLASGVPSRFSGSGSGTSYSLTINSLEAEDAATYYCHQRNSYPWTFGQGTKVEIK
			binds	binds	H6L6 (antibody, human IgG1, V domains shown, humanized; also called hu128.1) VH: EVQLVQSGAEVKKPGESLKISCKGSGYSFTGYTMNWVRQMPGKGLEWMGRINPHNGGTDYNQKFKDQVTISADKSISTAYLQWSSLKASDTAMYYCARGYYYYSLDYWGQGTLVTVSS VL: EIVLTQSPDFQSVTPKEKVTITCSASSSIRYIHWYQQRPDQSPKRWIYDTSNLASGVPSRFSGSGSGTSYSLTINSLEAEDAATYYCQQRNSYPWTFGQGTKVEIK
			binds	binds	H6L10 (antibody, human IgG1, V domains shown, humanized; also called hu128.1) VH: EVQLVQSGAEVKKPGESLKISCKGSGYSFTGYTMNWVRQMPGKGLEWMGRINPHNGGTDYNQKFKDQVTISADKSISTAYLQWSSLKASDTAMYYCARGYYYYSLDYWGQGTLVTVSS VL: EIVLTQSPDFQSVTPKEKVTITCSASSSIRYIHWYQQRPDQSPKRWIYDTSNLASGVPSRFSGSGSGTDFTLTINSLEAEDAATYYCHQRNSYPWTFGQGTKVEIK
			binds	binds	H6L5 (antibody, human IgG1, V domains shown, humanized; also called hu128.1) VH: EVQLVQSGAEVKKPGESLKISCKGSGYSFTGYTMNWVRQMPGKGLEWMGRINPHNGGTDYNQKFKDQVTISADKSISTAYLQWSSLKASDTAMYYCARGYYYYSLDYWGQGTLVTVSS VL: EIVLTQSPATLSLSPGERATLSCSASSSIRYIHWYQQKPGQAPRRWIYDTSNLASGTPARFSGSGSGTSYSLTISSLEPEDFAVYYCQQRNSYPWTFGQGTKVEIK
			binds	binds	H8L6 (antibody, human IgG1, V domains shown, humanized; also called hu128.1) VH: QVQLVESGGGVVQPGRSLRLSCAASGYSFTGYTMNWVRQAPGNGLEWVARINPHNGGTDYNQKFKDRFTISRDNSKNTLYLQMNSLRAEDTAVYYCARGYYYYSLDYWGQGTTVTVSS VL: EIVLTQSPDFQSVTPKEKVTITCSASSSIRYIHWYQQRPDQSPKRWIYDTSNLASGVPSRFSGSGSGTSYSLTINSLEAEDAATYYCQQRNSYPWTFGQGTKVEIK
binds	binds	~0.04			H8L10 (antibody, human IgG1, V domains shown, humanized; also called hu128.1) VH: QVQLVESGGGVVQPGRSLRLSCAASGYSFTGYTMNWVRQAPGNGLEWVARINPHNGGTDYNQKFKDRFTISRDNSKNTLYLQMNSLRAEDTAVYYCARGYYYYSLDYWGQGTTVTVSS VL: EIVLTQSPDFQSVTPKEKVTITCSASSSIRYIHWYQQRPDQSPKRWIYDTSNLASGVPSRFSGSGSGTDFTLTINSLEAEDAATYYCHQRNSYPWTFGQGTKVEIK
binds		~0.03			ch128.1 (antibody, human IgG1, V domains shown, mouse 128.1 V regions; also called chimeric antibody; parental chimeric antibody) VH: EVQLQQSGPELVKPGASMKISCKASGYSFTGYTMNWVKQSHGENLEWIGRINPHNGGTDYNQKFKDKAPLTVDKSSNTAYMELLSLTSGDSAVYYCARGYYYYSLDYWGQGTSVTVSS VL: QIVLTQSPAIMSVSPGEKVTMTCSASSSIRYIHWYQQRPGTSPKRWIYDTSNLASGVPARFSGSGSGTSYSLTISSMEAEDAATYYCHQRNSYPWTFGGGTRLEIR
